The experiment concerns primary breast tumor epithelial cells isolated from breast cancer tissues (HMFL-XN1, HMFL-XN3, HMFL-XN4, HMFL-XN6, HMFL-XN8). In words: Optimization of primary breast epithelial cell culture medium: cell count after culture with medium additives. The format is cell-based, human. More on the design: key: +: compared with the basis medium, the medium added with the additive(s) can promote the proliferation of primary breast tumor epithelial cells isolated from at least three cases of breast cancer tissues; −: the medium added with the additive(s) has the effect of inhibiting proliferation of primary breast tumor epithelial cells isolated from at least two cases of breast cancer tissues; ○: the medium added with this additive(s) has no significant effect on the proliferation of primary breast tumor epithelial cells isolated from at least three cases of breast cancer tissues. The conditions noted are these: additive at the concentration given in Table 1 added to basis medium; cell count after 10 days of culture, compared with basis medium; five breast cancer samples. The protocol: Matrigel (registered trademark) (manufactured by BD Biosciences) was diluted at 1:100 in serum-free DMEM/F12 medium to prepare an extracellular matrix dilution, which was added to a 48-well culture plate with 200 μl/well to completely cover the bottom of the wells of the culture plate. The resultant was let stand for 1 hour in a 37° C. incubator. After 1 hour, the extracellular matrix dilution was removed to provide a Matrigel-coated plate.
First, a basis medium was prepared. To a commercial DMEM/F-12 medium, GlutaMAX-I (manufactured by Thermo Fisher SCIENTIFIC) was added at the specified concentration (1:100 dilution), human insulin (manufactured by Sigma) was added at a final concentration of 10 μg/ml, ROCK kinase inhibitor Y27632 (manufactured by Sigma) was added at a final concentration of 10 μM, and penicillin-streptomycin (manufactured by Thermo Fisher SCIENTIFIC) was added at a 1:100 dilution ratio, which provides the basis medium.
Next, different types of additives (as shown in Table 1) were added to the basis medium to prepare breast epithelial cell culture mediums containing different supplementary components, and the mediums with different components were added at a volume of 500 μl/well to 48-well plates which were coated with extracellular matrix gel (Matrigel). Breast tumor cells (HMFL-XN1) isolated from breast cancer tissue in step (1) of this Example were inoculated in a Matrigel-coated 48-well culture plate at a cell density of 1×10^4 cells/well, and equal numbers of freshly isolated breast tumor cells (HMFL-XN1) were cultured under different medium formulations at 37° C., under 5% CO2 concentration and 20% oxygen concentration. The medium was renewed every 4 days after the start of the culture. After 10 days of culture, cell counts were performed. As an experiment control, the basis medium without any additives was used. Breast tumor cells isolated from the remaining four breast cancer tissue samples were cultured and counted in the same manner as above.

B1: Amphiregulin: human amphiregulin (R&D Systems), medium additive (protein, UniProt P15514 101-187, looked up)
Amphiregulin: SVRVEQVVKPPQNKTESENTSDKPKRKKKGGKNGKNRRNRKKKNPCNAEFQNFCIHGECKYIEHLEAVTCKCQQEYFGERCGEKSMK
For B1, the Degree of cell result was “+”.

B2: R-spondin1: R-spondin family protein, medium additive (protein, UniProt Q2MKA7 21-263, looked up)
R-spondin-1: SRGIKGKRQRRISAEGSQACAKGCELCSEVNGCLKCSPKLFILLERNDIRQVGVCLPSCPPGYFDARNPDMNKCIKCKIEHCEACFSHNFCTKCKEGLYLHKGRCYPACPEGSSAANGTMECSSPAQCEMSEWSPWGPCSKKQQLCGFRRGSEERTRRVLHAPVGDHAACSDTKETRRCTVRRVPCPEGQKRRKGGQGRRENANRNLARKESKEAGAGSRRRKGQQQQQQQGTVGPLTSAGPA
As to B2, the Degree of cell result is given as “○”.

B3: Interleukin 10: medium additive (R&D) (protein, UniProt P22301 19-178, looked up)
Interleukin-10: SPGQGTQSENSCTHFPGNLPNMLRDLRDAFSRVKTFFQMKDQLDNLLLKESLLEDFKGYLGCQALSEMIQFYLEEVMPQAENQDPDIKAHVNSLGENLKTLRLRLRRCHRFLPCENKSKAVEQVKNAFNKLQEKGIYKAMSEFDIFINYIEAYMTMKIRN
As to B3, the Degree of cell entry is listed as “○”.

B4: R-spondin3: R-spondin family protein, medium additive (protein, UniProt Q9BXY4 22-272, looked up)
R-spondin-3: QNASRGRRQRRMHPNVSQGCQGGCATCSDYNGCLSCKPRLFFALERIGMKQIGVCLSSCPSGYYGTRYPDINKCTKCKADCDTCFNKNFCTKCKSGFYLHLGKCLDNCPEGLEANNHTMECVSIVHCEVSEWNPWSPCTKKGKTCGFKRGTETRVREIIQHPSAKGNLCPPTNETRKCTVQRKKCQKGERGKKGRERKRKKPNKGESKEAIPDSKSLESSKEIPEQRENKQQQKKRKVQDKQKSVSVSTVH
As for B4, the Degree of cell entry is given as “○”.

B5: Fibroblast growth factor 10: fibroblast growth factor 10 (FGF10), medium additive (protein, UniProt O15520 38-208, looked up)
Fibroblast growth factor 10: QALGQDMVSPEATNSSSSSFSSPSSAGRHVRSYNHLQGDVRWRKLFSFTKYFLKIEKNGKVSGTKKENCPYSILEITSVEIGVVAVKAINSNYYLAMNKKGKLYGSKEFNNDCKLKERIEENGYNTYASFNWQHNGRQMYVALNGKGAPRRGQKTRRKNTSAHFLPMVVHS
Turning to B5, the Degree of cell result is given as “+”.

B6: Fibroblast growth factor 7: fibroblast growth factor 7 (FGF7), medium additive (protein, UniProt P21781 32-194, looked up)
Fibroblast growth factor 7: CNDMTPEQMATNVNCSSPERHTRSYDYMEGGDIRVRRLFCRTQWYLRIDKRGKVKGTQEMKNNYNIMEIRTVAVGIVAIKGVESEFYLAMNKEGKLYAKKECNEDCNFKELILENHYNTYASAKWTHNGGEMFVALNQKGIPVRGKKTKKEQKTAHFLPMAIT
As to B6, the Degree of cell result is given as “+”.

B7: Noggin: medium additive (R&D) (protein, UniProt Q13253 28-232, looked up)
Noggin: QHYLHIRPAPSDNLPLVDLIEHPDPIFDPKEKDLNETLLRSLLGGHYDPGFMATSPPEDRPGGGGGAAGGAEDLAELDQLLRQRPSGAMPSEIKGLEFSEGLAQGKKQRLSKKLRRKLQMWLWSQTFCPVLYAWNDLGSRFWPRYVKVGSCFSKRSCSVPEGMVCKPSKSVHLTVLRWRCQRRGGQRCGWIPIQYPIISECKCSC
As to B7, the Degree of cell result is listed as “○”.

The values are drawn from patent US20220389379A1, “PRIMARY BREAST EPITHELIAL CELL CULTURE MEDIUM, CULTURE METHOD AND USE THEREOF” (PRECEDO PHARMACEUTICALS CO., LTD, priority 2019, published 2022).
